Data published in patent publication US20060183702A1.

Target: IIbIIIa receptor on human platelets (human) (UniProt P08514)
Chain of UniProt P08514 (P08514 32-1039, chain 1 of 2): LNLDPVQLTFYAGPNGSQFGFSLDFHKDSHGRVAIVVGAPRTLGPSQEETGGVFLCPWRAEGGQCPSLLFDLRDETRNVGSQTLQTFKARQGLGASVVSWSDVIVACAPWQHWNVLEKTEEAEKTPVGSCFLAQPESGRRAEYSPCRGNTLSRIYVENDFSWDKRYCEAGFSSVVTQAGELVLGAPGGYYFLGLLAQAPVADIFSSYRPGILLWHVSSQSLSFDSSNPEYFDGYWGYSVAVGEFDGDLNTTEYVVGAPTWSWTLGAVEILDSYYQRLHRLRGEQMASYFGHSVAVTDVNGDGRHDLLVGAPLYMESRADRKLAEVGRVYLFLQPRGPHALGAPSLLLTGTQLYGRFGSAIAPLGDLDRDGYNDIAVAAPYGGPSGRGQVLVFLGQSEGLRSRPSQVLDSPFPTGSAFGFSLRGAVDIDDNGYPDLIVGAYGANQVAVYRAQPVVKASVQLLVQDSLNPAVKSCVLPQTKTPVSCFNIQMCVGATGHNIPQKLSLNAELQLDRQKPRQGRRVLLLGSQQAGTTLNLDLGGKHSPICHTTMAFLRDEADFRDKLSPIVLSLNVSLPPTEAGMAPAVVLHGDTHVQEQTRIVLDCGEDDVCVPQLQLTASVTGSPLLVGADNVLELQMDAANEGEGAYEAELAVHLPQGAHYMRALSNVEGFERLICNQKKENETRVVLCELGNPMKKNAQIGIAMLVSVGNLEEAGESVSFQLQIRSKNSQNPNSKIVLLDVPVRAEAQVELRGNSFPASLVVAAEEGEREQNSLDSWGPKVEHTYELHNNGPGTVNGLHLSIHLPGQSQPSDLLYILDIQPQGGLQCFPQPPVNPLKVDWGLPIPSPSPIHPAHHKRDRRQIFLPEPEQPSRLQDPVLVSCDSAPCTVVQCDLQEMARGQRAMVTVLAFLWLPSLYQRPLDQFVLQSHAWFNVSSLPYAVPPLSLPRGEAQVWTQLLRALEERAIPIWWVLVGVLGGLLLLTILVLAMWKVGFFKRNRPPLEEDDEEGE
Chain of UniProt P08514 (P05106 27-788, chain 2 of 2, further chain): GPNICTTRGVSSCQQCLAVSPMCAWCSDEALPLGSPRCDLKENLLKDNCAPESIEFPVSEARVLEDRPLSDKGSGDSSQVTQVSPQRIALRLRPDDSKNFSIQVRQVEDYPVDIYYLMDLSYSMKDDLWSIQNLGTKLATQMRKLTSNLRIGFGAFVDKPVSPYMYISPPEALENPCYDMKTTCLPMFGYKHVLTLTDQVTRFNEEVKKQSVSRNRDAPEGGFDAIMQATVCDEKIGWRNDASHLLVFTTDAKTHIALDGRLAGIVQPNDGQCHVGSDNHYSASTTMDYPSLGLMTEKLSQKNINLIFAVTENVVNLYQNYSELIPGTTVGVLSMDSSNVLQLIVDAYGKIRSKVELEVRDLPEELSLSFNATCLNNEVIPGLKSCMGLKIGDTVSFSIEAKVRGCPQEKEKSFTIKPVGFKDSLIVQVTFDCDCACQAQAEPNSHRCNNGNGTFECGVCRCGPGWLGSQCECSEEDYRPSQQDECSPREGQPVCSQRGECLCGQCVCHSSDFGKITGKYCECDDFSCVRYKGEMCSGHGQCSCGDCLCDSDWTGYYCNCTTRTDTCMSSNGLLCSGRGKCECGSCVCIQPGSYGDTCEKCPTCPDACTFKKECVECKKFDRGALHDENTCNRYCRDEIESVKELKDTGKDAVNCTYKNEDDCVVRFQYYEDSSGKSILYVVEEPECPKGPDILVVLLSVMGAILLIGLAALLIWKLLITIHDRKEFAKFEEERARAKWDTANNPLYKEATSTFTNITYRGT

Substance: Integrilin (peptide)
- IC50 (read off the curve), ADP-induced platelet aggregation (AIPA) in human PRP: 200 nM
